Test results reported in publication PMC8789080.
Changes are numbered by the printed parent chain. In names and notes the source's numbering stands. Like-named read-outs stand apart in the source and are kept apart here.

How the values were obtained:
Test in all cases: EMSA
6H-QseC2 [1] = biological target: T1, 6H-QseC2 (Mesorhizobium japonicum R7A, UniProt A0ABX6MZB7 1-81)
6H-QseC2 [2] = biological target: T1, 6H-QseC2; remark: listed apart in the source
6H-QseC2 [3] = biological target: T1, 6H-QseC2; remark: listed apart in the source
6H-QseC2 [4] = biological target: T1, 6H-QseC2; remark: listed apart in the source

B1: O2L-O2R EMSA (dsDNA)
DNA 1: TACGTGGTTGAATGCTCGACACTACATGGCGCGGTTTGCCTTGTGGATTGCAAATATATCCTAAAATGGGATAATCCGAAACTGGGATTAGTTGATGAGCCGGTTCCCTTCTGGCCGGTTCATCTGATGCAGCGTGCGCTACTAGTTCCCGTA
DNA 2: TACGGGAACTAGTAGCGCACGCTGCATCAGATGAACCGGCCAGAAGGGAACCGGCTCATCAACTAATCCCAGTTTCGGATTATCCCATTTTAGGATATATTTGCAATCCACAAGGCAAACCGCGCCATGTAGTGTCGAGCATTCAACCACGTA
binding result (6H-QseC2 [1]): binds

B2: O2L EMSA (O2R scrambled) (dsDNA)
DNA 1: TACGTGGTTGAATGCTCGACACTACATGGCGCGGTTTGCCTTGTGGATTGCAAATATATCCTAAAATGGGATAGAACTACTGGTAACGTAGTTGATGAGCCGGTTCCCTTCTGGCCGGTTCATCTGATGCAGCGTGCGCTACTAGTTCCCGTA
DNA 2: TACGGGAACTAGTAGCGCACGCTGCATCAGATGAACCGGCCAGAAGGGAACCGGCTCATCAACTACGTTACCAGTAGTTCTATCCCATTTTAGGATATATTTGCAATCCACAAGGCAAACCGCGCCATGTAGTGTCGAGCATTCAACCACGTA
binding result (6H-QseC2 [2]): binds

B3: O2R EMSA (O2L scrambled) (dsDNA)
DNA 1: B1 DNA 1 with A58G, T59A, C60G, C61T, A63C, A66T, T67C, G68T, G70A, T72A
DNA 2: B1 DNA 2 with A82T, C84T, C86A, A87G, T88A, T91G, G93A, G94C, A95T, T96C
binding result (6H-QseC2 [3]): binds

B4: RDM2 EMSA (both scrambled) (dsDNA)
DNA 1: TACGTGGTTGAATGCTCGACACTACATGGCGCGGTTTGCCTTGTGGATTGCAAGTCCAGATAGAAACGGACATATTGATTATTAATTAGCGCTGATGAGCCGGTTCCCTTCTGGCCGGTTCATCTGATGCAGCGTGCGCTACTAGTTCCCGTA
DNA 2: TACGGGAACTAGTAGCGCACGCTGCATCAGATGAACCGGCCAGAAGGGAACCGGCTCATCAGCGCTAATTAATAATCAATATGTCCGTTTCTATCTGGACTTGCAATCCACAAGGCAAACCGCGCCATGTAGTGTCGAGCATTCAACCACGTA
binding result (6H-QseC2 [4]): no binding
